For one assay, the target named is T1, His-ORP1L(336-950aa) (UniProt Q9BXW6-1 336-950).
T1 construct: source: prokaryotic expressed, purified
T1 sequence (looked up): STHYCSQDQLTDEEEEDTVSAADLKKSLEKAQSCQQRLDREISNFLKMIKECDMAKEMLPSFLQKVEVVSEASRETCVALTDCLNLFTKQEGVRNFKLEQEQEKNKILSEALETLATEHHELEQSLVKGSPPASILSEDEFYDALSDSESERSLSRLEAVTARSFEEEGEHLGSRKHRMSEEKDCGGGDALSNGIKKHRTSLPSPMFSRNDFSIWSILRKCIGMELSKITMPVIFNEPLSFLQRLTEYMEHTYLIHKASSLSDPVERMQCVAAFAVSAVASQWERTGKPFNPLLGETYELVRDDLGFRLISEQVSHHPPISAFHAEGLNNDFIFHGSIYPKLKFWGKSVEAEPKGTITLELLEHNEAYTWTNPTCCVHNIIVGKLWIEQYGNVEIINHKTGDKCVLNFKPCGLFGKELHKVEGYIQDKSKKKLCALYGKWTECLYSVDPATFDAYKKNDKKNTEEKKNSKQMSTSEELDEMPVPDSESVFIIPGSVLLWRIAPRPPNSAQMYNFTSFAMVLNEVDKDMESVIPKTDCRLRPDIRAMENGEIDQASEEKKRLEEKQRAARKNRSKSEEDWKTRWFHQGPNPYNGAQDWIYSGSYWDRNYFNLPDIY
Kind of assay: pull-down; in vitro binding: purified prokaryotic expressed His-ORP1L or His-ORP1L(336-950aa) with increasing amounts of His-RILP, incubated with GST-VAPa(1-225aa) retained on GST beads; ORP1L bound assessed by Western blot. As to conditions: both partners purified.

The target in a further assay is T2, His-ORP1L (UniProt Q9BXW6-1 1-950).
T2 construct: ORP1L in pET-28a; source: prokaryotic expressed, purified
T2 sequence (looked up): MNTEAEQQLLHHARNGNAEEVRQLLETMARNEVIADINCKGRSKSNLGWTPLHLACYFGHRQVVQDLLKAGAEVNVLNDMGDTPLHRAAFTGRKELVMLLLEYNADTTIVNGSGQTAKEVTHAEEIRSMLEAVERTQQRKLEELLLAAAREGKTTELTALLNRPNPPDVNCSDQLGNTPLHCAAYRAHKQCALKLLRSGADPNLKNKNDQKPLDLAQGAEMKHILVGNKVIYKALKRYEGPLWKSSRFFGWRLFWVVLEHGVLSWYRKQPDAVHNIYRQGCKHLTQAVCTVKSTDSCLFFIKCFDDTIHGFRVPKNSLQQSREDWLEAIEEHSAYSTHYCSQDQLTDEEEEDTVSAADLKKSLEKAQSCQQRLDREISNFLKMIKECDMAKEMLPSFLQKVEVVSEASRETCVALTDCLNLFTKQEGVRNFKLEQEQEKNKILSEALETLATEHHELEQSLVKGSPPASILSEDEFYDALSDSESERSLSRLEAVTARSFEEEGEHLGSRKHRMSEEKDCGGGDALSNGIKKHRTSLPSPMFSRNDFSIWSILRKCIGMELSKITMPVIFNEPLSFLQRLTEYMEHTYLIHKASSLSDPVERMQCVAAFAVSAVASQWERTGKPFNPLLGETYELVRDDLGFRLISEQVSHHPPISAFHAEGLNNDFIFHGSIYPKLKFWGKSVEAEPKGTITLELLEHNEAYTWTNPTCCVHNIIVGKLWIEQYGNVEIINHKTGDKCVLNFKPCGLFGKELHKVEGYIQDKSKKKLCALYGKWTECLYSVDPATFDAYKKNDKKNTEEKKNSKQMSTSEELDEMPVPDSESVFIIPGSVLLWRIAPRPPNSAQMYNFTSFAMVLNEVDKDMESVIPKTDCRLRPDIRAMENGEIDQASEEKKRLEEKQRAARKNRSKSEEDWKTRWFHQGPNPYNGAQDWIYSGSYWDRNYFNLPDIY
The assay is described as above. As to conditions: both partners purified.

B1: GST-VAPa(1-225aa) (domain or fragment, UniProt Q9P0L0 1-225, looked up)
chain: MASASGAMAKHEQILVLDPPTDLKFKGPFTDVVTTNLKLRNPSDRKVCFKVKTTAPRRYCVRPNSGIIDPGSTVTVSVMLQPFDYDPNEKSKHKFMVQTIFAPPNTSDMEAVWKEAKPDELMDSKLRCVFEMPNENDKLNDMEPSKAVPLNASKQDGPMPKPHSVSLNDTETRKLMEECKRLQGEMMKLSEENRHLRDEGLRLRKVAHSDKPGSTSTASFRDNVT
notes: VAP-A (vesicle-associated membrane protein-associated protein A) residues 1-225, the cytoplasmic region; subcloned into pGEX-4T-1; also called GST-tagged VAP-A(1-225aa); source: prokaryotic expressed, retained on GST beads (GST-Sepharose 4B resin)
Consider B1, for which the binding result with His-ORP1L(336-950aa) and with His-ORP1L was “binds” each time.

B2: His-RILP (natural protein, UniProt Q96NA2 1-401, looked up)
chain: MEPRRAAPGVPGWGSREAAGSASAAELVYHLAGALGTELQDLARRFGPEAAAGLVPLVVRALELLEQAAVGPAPDSLQVSAQPAEQELRRLREENERLRRELRAGPQEERALLRQLKEVTDRQRDELRAHNRDLRQRGQETEALQEQLQRLLLVNAELRHKLAAMQTQLRAAQDRERERQQPGEAATPQAKERARGQAGRPGHQHGQEPEWATAGAGAPGNPEDPAEAAQQLGRPSEAGQCRFSREEFEQILQERNELKAKVFLLKEELAYFQRELLTDHRVPGLLLEAMKVAVRKQRKKIKAKMLGTPEEAESSEDEAGPWILLSDDKGDHPPPPESKIQSFFGLWYRGKAESSEDETSSPAPSKLGGEEEAQPQSPAPDPPCSALHEHLCLGASAAPEA
notes: RILP in pET-28a; source: prokaryotic expressed, purified
With B2, in the assay with His-ORP1L(336-950aa), the binding result is “binds”.
